One molecule from PMC6780499, “Characterization, Recombinant Production and Structure-Function Analysis of NvCI, A Picomolar Metallocarboxypeptidase Inhibitor from the Marine Snail Nerita versicolor” (Marine Drugs, 2019) can be followed below.

No end group written: not given here.

Holding throughout (experiment): Ki, residual activity
One test concerns the target T1, hCPZ (Homo sapiens (Human), UniProt Q66K79).
T1 chain: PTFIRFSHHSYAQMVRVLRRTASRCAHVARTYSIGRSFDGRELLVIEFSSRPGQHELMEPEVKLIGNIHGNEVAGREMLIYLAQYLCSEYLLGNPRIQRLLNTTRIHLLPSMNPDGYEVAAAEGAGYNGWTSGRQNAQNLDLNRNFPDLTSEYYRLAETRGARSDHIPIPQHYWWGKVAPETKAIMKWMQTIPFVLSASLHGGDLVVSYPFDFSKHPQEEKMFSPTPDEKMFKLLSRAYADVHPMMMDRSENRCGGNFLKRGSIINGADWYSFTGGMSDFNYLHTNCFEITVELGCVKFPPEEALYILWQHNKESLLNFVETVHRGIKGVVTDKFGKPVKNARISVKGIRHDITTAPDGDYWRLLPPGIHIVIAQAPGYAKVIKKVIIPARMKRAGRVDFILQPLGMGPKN

For a further test, the target named is T2, hCPA1 (Homo sapiens (Human), UniProt P15085).
T2 chain: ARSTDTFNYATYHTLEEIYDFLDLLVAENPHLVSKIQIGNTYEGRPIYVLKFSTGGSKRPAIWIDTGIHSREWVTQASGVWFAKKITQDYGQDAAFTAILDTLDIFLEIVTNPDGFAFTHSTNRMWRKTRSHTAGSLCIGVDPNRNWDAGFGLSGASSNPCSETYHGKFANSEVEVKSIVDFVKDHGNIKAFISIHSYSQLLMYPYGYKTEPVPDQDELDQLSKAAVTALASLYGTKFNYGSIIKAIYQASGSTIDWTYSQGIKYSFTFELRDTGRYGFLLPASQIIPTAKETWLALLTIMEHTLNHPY

In the next test the target is T3, hCPA4 (Homo sapiens (Human), UniProt Q9UI42).
T3 chain: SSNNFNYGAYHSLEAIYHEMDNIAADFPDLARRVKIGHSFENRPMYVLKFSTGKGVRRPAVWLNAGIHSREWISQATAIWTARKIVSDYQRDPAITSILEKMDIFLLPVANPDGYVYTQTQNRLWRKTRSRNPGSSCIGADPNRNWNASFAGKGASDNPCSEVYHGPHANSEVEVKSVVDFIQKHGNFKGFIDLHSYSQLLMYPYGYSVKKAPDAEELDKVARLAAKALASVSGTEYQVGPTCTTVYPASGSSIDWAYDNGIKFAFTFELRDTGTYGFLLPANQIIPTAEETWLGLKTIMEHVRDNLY

A further test concerns the target T4, rCPA3 (Rattus norvegicus (Rat), UniProt P21961).
T4 chain: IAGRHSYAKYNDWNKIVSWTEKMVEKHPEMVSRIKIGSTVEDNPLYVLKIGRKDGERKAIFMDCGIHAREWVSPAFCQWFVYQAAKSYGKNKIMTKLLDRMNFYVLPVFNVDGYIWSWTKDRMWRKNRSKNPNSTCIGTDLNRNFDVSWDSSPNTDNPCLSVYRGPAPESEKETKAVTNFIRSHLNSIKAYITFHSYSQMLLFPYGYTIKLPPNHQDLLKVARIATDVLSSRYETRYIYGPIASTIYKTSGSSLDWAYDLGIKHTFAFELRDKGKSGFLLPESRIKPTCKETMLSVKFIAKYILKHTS

A further test has as its target T5, hCPB (Homo sapiens (Human), UniProt P15086).
T5 chain: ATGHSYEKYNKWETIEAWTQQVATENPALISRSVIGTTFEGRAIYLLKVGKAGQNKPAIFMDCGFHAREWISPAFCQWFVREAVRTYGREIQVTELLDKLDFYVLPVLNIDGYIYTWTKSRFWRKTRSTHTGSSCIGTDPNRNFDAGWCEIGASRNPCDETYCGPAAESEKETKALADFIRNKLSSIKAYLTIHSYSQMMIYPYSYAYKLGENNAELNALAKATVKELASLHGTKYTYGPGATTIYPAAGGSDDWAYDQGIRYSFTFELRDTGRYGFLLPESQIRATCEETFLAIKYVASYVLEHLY

Another test deals with T6, hCPD (Homo sapiens (Human), UniProt O75976).
T6 chain: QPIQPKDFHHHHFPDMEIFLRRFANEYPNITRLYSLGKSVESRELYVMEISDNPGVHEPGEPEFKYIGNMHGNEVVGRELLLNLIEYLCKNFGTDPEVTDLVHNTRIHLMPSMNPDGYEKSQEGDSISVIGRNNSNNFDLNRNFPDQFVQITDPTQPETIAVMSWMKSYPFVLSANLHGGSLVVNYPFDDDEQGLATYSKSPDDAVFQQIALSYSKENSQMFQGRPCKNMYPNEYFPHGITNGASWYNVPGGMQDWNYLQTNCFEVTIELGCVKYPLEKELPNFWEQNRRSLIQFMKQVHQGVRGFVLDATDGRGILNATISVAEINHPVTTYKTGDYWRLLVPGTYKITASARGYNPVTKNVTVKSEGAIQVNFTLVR

In another test the target is T7, hCPA2 (Homo sapiens (Human), UniProt P48052).
T7 chain: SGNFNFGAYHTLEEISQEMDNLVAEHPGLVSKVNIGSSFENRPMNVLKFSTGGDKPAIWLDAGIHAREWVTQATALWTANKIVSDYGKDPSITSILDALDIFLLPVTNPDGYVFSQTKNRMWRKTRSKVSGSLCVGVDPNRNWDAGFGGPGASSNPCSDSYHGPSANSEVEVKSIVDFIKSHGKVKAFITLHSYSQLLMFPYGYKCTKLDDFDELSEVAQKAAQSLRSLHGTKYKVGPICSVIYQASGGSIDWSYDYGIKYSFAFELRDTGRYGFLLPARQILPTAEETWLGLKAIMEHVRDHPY

The next test deals with T8, bCPA1 (Bos taurus (Bovine), UniProt P00730).
T8 chain: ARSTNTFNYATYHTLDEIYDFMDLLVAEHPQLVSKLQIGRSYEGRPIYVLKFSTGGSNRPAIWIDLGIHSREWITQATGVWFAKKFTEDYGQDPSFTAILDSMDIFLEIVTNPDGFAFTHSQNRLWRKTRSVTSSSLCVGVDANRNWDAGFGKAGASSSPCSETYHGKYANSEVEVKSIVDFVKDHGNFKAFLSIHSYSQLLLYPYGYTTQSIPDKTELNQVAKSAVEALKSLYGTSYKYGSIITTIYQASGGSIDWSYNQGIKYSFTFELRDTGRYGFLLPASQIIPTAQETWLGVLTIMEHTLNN

B1: NvCI (protein)
chain: FHVPDDRPCINPGRCPLVPDATCTFVCKAADNDFGYECQHVWTFEGQRVGCYA
modifications: disulfide (positions not given here); not fully specified (bridges); ends not checked
Consider B1, for which the Kd was above 1000 nM with hCPZ; 0.0012 nM in the test with hCPA1; 0.0049 nM in the test with hCPA4; 0.1 nM with rCPA3; 0.549 nM with hCPB; above 1000 nM with hCPD. Besides, the Kd with hCPA2 is 2.94 nM; with bCPA1, 0.0058 nM.
